Tests used:
[1] = molecular target: T1, MICA胞外区α3结构域Fc融合蛋白(MICAα3-Fc); assay: ELISA (legend of Fig. 2)
T1 construct: also called MICAα3-Fc融合蛋白; MICA α3结构域

MICA (CHO-K1-MICA细胞表达) = molecular target: T2, MICA (CHO-K1-MICA细胞表达) (Homo sapiens (Human), UniProt Q29983 24-383); assay: flow cytometry (legend of Fig. 3)
T2 construct: also called MICA蛋白
T2 sequence: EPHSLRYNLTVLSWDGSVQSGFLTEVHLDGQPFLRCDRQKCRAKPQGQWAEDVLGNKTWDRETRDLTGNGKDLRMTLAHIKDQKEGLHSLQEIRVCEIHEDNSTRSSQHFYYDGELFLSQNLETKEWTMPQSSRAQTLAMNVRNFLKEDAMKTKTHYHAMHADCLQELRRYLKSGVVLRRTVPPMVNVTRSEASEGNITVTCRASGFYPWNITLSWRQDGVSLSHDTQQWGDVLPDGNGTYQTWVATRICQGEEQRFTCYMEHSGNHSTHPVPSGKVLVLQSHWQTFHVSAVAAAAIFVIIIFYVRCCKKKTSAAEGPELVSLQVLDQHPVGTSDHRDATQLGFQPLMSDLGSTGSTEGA

MICB (CHO-K1-MICB细胞表达) = molecular target: T3, MICB (CHO-K1-MICB细胞表达) (Homo sapiens (Human), UniProt Q29980 23-382); assay: flow cytometry (legend of Fig. 4)
T3 chain: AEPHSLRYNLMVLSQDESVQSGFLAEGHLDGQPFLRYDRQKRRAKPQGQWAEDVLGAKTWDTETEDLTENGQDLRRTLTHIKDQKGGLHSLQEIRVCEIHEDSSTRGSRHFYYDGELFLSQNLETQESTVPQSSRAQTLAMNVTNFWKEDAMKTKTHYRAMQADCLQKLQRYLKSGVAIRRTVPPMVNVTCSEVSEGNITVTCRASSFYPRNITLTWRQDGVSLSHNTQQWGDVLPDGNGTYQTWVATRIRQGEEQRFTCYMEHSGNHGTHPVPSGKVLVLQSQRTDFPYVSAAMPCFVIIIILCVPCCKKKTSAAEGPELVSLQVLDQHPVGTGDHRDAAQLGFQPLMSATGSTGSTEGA

重组MICA胞外区Fc融合蛋白(MICA-Fc) = molecular target: T4, 重组MICA胞外区Fc融合蛋白(MICA-Fc) (human); assay: ELISA, MICA-Fc coated at 1 μg/mL, HRP anti-mouse secondary
T4 construct: also called MICA-Fc融合蛋白; 人MICA

T1 sequence (chain, as listed by the source limits assumed): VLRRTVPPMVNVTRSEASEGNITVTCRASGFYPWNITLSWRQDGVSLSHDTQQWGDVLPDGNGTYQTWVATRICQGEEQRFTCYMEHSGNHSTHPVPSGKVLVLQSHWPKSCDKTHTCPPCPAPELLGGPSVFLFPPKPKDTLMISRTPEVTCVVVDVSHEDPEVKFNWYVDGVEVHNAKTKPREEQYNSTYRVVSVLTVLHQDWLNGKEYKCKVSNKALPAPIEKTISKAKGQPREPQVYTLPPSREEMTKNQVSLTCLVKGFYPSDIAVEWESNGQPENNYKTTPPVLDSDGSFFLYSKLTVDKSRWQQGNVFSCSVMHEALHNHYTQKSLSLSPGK

binding result [1]: binds
binding result (MICA (CHO-K1-MICA细胞表达)): binds
binding result (MICB (CHO-K1-MICB细胞表达)): binds
binding result (重组MICA胞外区Fc融合蛋白(MICA-Fc)): binds
B1: MICA抗体(编号为11G3) (antibody, V domains shown)
VH: QIQLVQSGPELKKPGESVKISCKASGYTFTDYGINWVKQAPGKGLKWVGWINTYTGEPINADDFKGRFALSLETSANTAYLQINNLKNEDMATYFCTRLSTVAVGAWFEYWGQGTLVTVSA
VL: DVLMTQTPLSLPVSLGDQASISCRSSQNIVHSNGNTYLEWYLQKPGQSPKLLIYKVSNRFSGVPDRFSGSGSGTDFTLKISRVEAEDLGVYYCFQGSHVPTFGGGTKLEIK
notes: also called 鼠单抗; 本发明的抗体

Reference: patent CN114369161A (HEFEN TIANKPORT IMMUNOLOGICAL DRUG CO LTD, dated 2022)
